Experimental data: patent US20150086555A1

Legend:
Details in all cases: remark: other sources report otherwise
[1] = target: recombinant soluble homotrimeric HA of A/Solomon Islands/3/06 (H1N1) (Influenza A virus A/Solomon Islands/3/2006(H1N1)); assay: HA microarray, BCC supernatant
[2] = target: recombinant soluble homotrimeric HA of A/Japan/305/57 (H2N2) (Influenza A virus A/Japan/305/1957(H2N2)); assay: HA microarray, BCC supernatant
[3] = target: recombinant soluble homotrimeric HA of A/Wisconsin/67/05 (H3N2) (Influenza A virus A/Wisconsin/67/2005(H3N2)); assay: HA microarray, BCC supernatant
[4] = target: recombinant soluble homotrimeric HA of A/duck/Yangzhou/02/05 (H8N4) (Influenza A virus A/duck/Yangzhou/02/2005(H8N4)); assay: HA microarray, BCC supernatant
[5] = target: recombinant soluble homotrimeric HA of A/Netherlands/219/03 (H7N7) (Influenza A virus A/Netherlands/219/03(H7N7)); assay: HA microarray, BCC supernatant
[6] = target: recombinant soluble homotrimeric HA of A/swine/Ontario/01911-2/99 (H4N6) (Influenza A virus A/Swine/Ontario/01911-2/99 (H4N6)); assay: HA microarray, BCC supernatant
[7] = target: recombinant soluble homotrimeric HA, A/Solomon Islands/3/06 H1N1 (Influenza A virus A/Solomon Islands/3/2006(H1N1)); assay: microarray, transfection SN IgG, trimeric HA
[8] = target: recombinant soluble homotrimeric HA, A/Wisconsin/67/05 H3N2 (Influenza A virus A/Wisconsin/67/2005(H3N2)); assay: microarray, transfection SN IgG, trimeric HA
[9] = target: recombinant soluble homotrimeric HA, A/South Carolina/1/18 H1N1 (Influenza A virus A/South Carolina/1/18 (H1N1)); assay: microarray, transfection SN IgG, trimeric HA
[10] = target: recombinant soluble homotrimeric HA, A/northern shoveler/California/HKWF115/07 H6N4 (Influenza A virus A/northern shoveler/California/HKWF115/2007(H6N1)); assay: microarray, transfection SN IgG, trimeric HA
[11] = target: recombinant soluble homotrimeric HA, A/Netherlands/219/03 H7N7 (Influenza A virus A/Netherlands/219/03(H7N7)); assay: microarray, transfection SN IgG, trimeric HA
[12] = target: recombinant soluble homotrimeric HA, A/swine/Ontario/01911-2/99 H4N6 (Influenza A virus A/Swine/Ontario/01911-2/99 (H4N6)); assay: microarray, transfection SN IgG, trimeric HA
[13] = target: recombinant soluble homotrimeric HA, A/Egypt/3300-NAMRU3/08 H5N1 (Influenza A virus A/Egypt/3300-NAMRU3/2008(H5N1)); assay: microarray, transfection SN IgG, trimeric HA
[14] = target: recombinant soluble homotrimeric HA, A/chicken/Vietnam/NCVD-016/08 H5N1 (Influenza A virus A/chicken/Vietnam/NCVD-016/2008(H5N1)); assay: microarray, transfection SN IgG, trimeric HA
[15] = target: recombinant soluble homotrimeric HA, A/duck/Yangzhou/02/05 H8N4 (Influenza A virus A/duck/Yangzhou/02/2005(H8N4)); assay: microarray, transfection SN IgG, trimeric HA
[16] = target: recombinant soluble homotrimeric HA, A/Japan/305/57 H2N2 (Influenza A virus A/Japan/305/1957(H2N2)); assay: microarray, transfection SN IgG, trimeric HA
[17] = target: recombinant soluble homotrimeric HA of A/California/4/09 (H1N1) (Influenza A virus A/California/04/2009(H1N1)); assay: HA microarray, BCC supernatant
[18] = target: recombinant soluble homotrimeric HA of A/chicken/Vietnam/NCVD-016/08 (H5N1) (Influenza A virus A/chicken/Vietnam/NCVD-016/2008(H5N1)); assay: HA microarray, BCC supernatant
[19] = target: recombinant soluble homotrimeric HA of A/northern shoveler/California/HKWF115/07 (H6) (Influenza A virus A/northern shoveler/California/HKWF115/2007(H6N1)); assay: HA microarray, BCC supernatant
[20] = target: recombinant homotrimeric HA A/Hong Kong/1073/99 H9N2 (Influenza A virus A/Hong Kong/1073/99 (H9N2)); assay: protein microarray, purified IgG, trimeric HA
[21] = target: recombinant homotrimeric HA A/Egypt/3300-NAMRU3/08 H5N1 (Influenza A virus A/Egypt/3300-NAMRU3/2008(H5N1)); assay: protein microarray, purified IgG, trimeric HA
[22] = target: recombinant homotrimeric HA A/northern shoveler/California/HKWF115/07 H6N4 (Influenza A virus A/northern shoveler/California/HKWF115/2007(H6N1)); assay: protein microarray, purified IgG, trimeric HA
[23] = target: recombinant homotrimeric HA A/duck/Yangzhou/02/05 H8N4 (Influenza A virus A/duck/Yangzhou/02/2005(H8N4)); assay: protein microarray, purified IgG, trimeric HA
[24] = target: recombinant homotrimeric HA A/Japan/305/57 H2N2 (Influenza A virus A/Japan/305/1957(H2N2)); assay: protein microarray, purified IgG, trimeric HA
[25] = target: recombinant homotrimeric HA A/Netherlands/219/03 H7N7 (Influenza A virus A/Netherlands/219/03(H7N7)); assay: protein microarray, purified IgG, trimeric HA
[26] = target: recombinant homotrimeric HA A/South Carolina/1/18 H1N1 (Influenza A virus A/South Carolina/1/18 (H1N1)); assay: protein microarray, purified IgG, trimeric HA
[27] = target: recombinant homotrimeric HA A/Wisconsin/67/05 H3N2 (Influenza A virus A/Wisconsin/67/2005(H3N2)); assay: protein microarray, purified IgG, trimeric HA
[28] = target: recombinant homotrimeric HA A/California/4/09 H1N1 (Influenza A virus A/California/04/2009(H1N1)); assay: protein microarray, purified IgG, trimeric HA
[29] = target: recombinant homotrimeric HA A/chicken/Vietnam/NCVD-016/08 H5N1 (Influenza A virus A/chicken/Vietnam/NCVD-016/2008(H5N1)); assay: protein microarray, purified IgG, trimeric HA
[30] = target: recombinant soluble homotrimeric HA, A/California/4/09 H1N1 (Influenza A virus A/California/04/2009(H1N1)); assay: microarray, transfection SN IgG, trimeric HA

B1: TCN-547 (5092_F11) (antibody, V domains shown)
VH: QVQLQESGPGLVKPSQTLSLTCTVSGDSISSVDHYWSWIRQHPVKGLEWIGFMYYSASTYYNPSLKSRVTISTDTSKNQFSLRLSSVTAADTAVYYCARGTCAGDCSLHYYYYGLDVWGQGRTVTVSS
VL: DIQMTQSPSSLSASVGDRVTITCRASQSISSYLNWYQHKPGKAPKVLMYAVSILQSGVPSRFSGSGSGADFTLTISSLQPEDFATYYCQQSYSSPLTFGGGTKVEIK
[1]
  Trimeric HA Binding: RLU: 155 RLU
[2]
  Trimeric HA Binding: RLU: 40 RLU
[3]
  Trimeric HA Binding: RLU: 16900 RLU
[4]
  Trimeric HA Binding: RLU: 278 RLU
[5]
  Trimeric HA Binding: RLU: 401 RLU
[6]
  Trimeric HA Binding: RLU: 252 RLU
[7]
  Trimeric HA Binding: RLU: 1080 RLU
[8]
  Trimeric HA Binding: RLU: 6970 RLU
[9]
  Trimeric HA Binding: RLU: 2020 RLU
[10]
  Trimeric HA Binding: RLU: 2620 RLU
[11]
  Trimeric HA Binding: RLU: 2090 RLU
[12]
  Trimeric HA Binding: RLU: 1600 RLU
[13]
  Trimeric HA Binding: RLU: 16800 RLU
[14]
  Trimeric HA Binding: RLU: 1320 RLU
[15]
  Trimeric HA Binding: RLU: 3340 RLU
[16]
  Trimeric HA Binding: RLU: 1350 RLU

B2: TCN-549 (5092_P04) (antibody, V domains shown)
VH: QVQLVQSGAEVKKPGASVKVSCKASGYTFTGYYMHWVRQAPGQGLEWMGWINPNSGDTNYAQKFQGRVTMTRDTSITTAYMELSSLRSDDTAVYYCARDSPYSSSWSFFDYWGQGPLVTVSS
VL: not shown
[17]
  Trimeric HA Binding: RLU: 338 RLU
[1]
  Trimeric HA Binding: RLU: 284 RLU
[2]
  Trimeric HA Binding: RLU: 387 RLU
[3]
  Trimeric HA Binding: RLU: 30900 RLU
[18]
  Trimeric HA Binding: RLU: 498 RLU
[5]
  Trimeric HA Binding: RLU: 1130 RLU
[19]
  Trimeric HA Binding: RLU: 1100 RLU
[20]
  Trimeric HA Binding: RLU: 450 RLU
[21]
  Trimeric HA Binding: RLU: 6920 RLU
[22]
  Trimeric HA Binding: RLU: 112 RLU
[23]
  Trimeric HA Binding: RLU: 166 RLU
[24]
  Trimeric HA Binding: RLU: 413 RLU
[25]
  Trimeric HA Binding: RLU: 193 RLU
[26]
  Trimeric HA Binding: RLU: 72 RLU
[27]
  Trimeric HA Binding: RLU: 27200 RLU
[28]
  Trimeric HA Binding: RLU: 196 RLU
[29]
  Trimeric HA Binding: RLU: 177 RLU
[7]
  Trimeric HA Binding: RLU: 640 RLU
[8]
  Trimeric HA Binding: RLU: 51600 RLU
[9]
  Trimeric HA Binding: RLU: 2340 RLU
[10]
  Trimeric HA Binding: RLU: 996 RLU
[11]
  Trimeric HA Binding: RLU: 8480 RLU
[12]
  Trimeric HA Binding: RLU: 1880 RLU
[13]
  Trimeric HA Binding: RLU: 18600 RLU
[14]
  Trimeric HA Binding: RLU: 1600 RLU
[15]
  Trimeric HA Binding: RLU: 9450 RLU
[16]
  Trimeric HA Binding: RLU: 1080 RLU
[30]
  Trimeric HA Binding: RLU: 622 RLU

B3: TCN-548 (5092_P01) (antibody, V domains shown)
VH: QVQLQESGPGLVKPSETLSLTCTVSSGPMSDYYWSWIRQPPGKGLEWIGHVSVSHGGRTKSNPSVMSRVTISVETSKNQFSLKLTSVTAADTAVYYCARLNYYDRSGYHSPDGPSNNWFDPWGQGTLVTVSS
VL: not shown
[17]
  Trimeric HA Binding: RLU: 234 RLU
[1]
  Trimeric HA Binding: RLU: 283 RLU
[2]
  Trimeric HA Binding: RLU: 416 RLU
[4]
  Trimeric HA Binding: RLU: 184 RLU
[5]
  Trimeric HA Binding: RLU: 758 RLU
[6]
  Trimeric HA Binding: RLU: 240 RLU
[7]
  Trimeric HA Binding: RLU: 750 RLU
[9]
  Trimeric HA Binding: RLU: 1150 RLU
[10]
  Trimeric HA Binding: RLU: 2100 RLU
[11]
  Trimeric HA Binding: RLU: 2130 RLU
[12]
  Trimeric HA Binding: RLU: 1620 RLU
[14]
  Trimeric HA Binding: RLU: 1060 RLU
[15]
  Trimeric HA Binding: RLU: 5740 RLU
[16]
  Trimeric HA Binding: RLU: 1020 RLU
[30]
  Trimeric HA Binding: RLU: 818 RLU
